The source of these data is patent US20230398232A1 (NAVROGEN, published 2023).

The target of assay [1] is T1, soluble human CA125 protein (human, UniProt Q8WXI7 1-14451, limits assumed).
T1 construct: Coated on the ELISA plate at 15 KU/mL; also called MUC16/CA125; soluble CA125
The assay can be described thus: ELISA, plate coated with 15 KU/mL soluble CA125, probed with antibody, anti-Fc-HRP detection. The protocol: FIG. 1A. Screening for anti-mesothelin antibodies not bound by the immunosuppressive CA125 protein; identification of MES-1 antibody (SEQ ID NO: 1 and 2). Briefly, 96-well ELISA plates were coated with 15 KU/mL of soluble CA125, 1 μg/mL of recombinant human mesothelin protein as a positive control and 1 μg/mL of human serum albumin (HSA) as a negative control and probed with 2.5 μg/mL of different anti-mesothelin antibodies to determine if they are bound by CA125. Wells were washed and detected for binding via a secondary anti-human or anti-rodent Fc-horseradish peroxidase (HRP) conjugated antibody and 3,3′,5,5′-Tetramethylbenzidine (TMB) substrate. Reactions were stopped with 0.1N H₂SO₄ and wells quantified using a multi-well plate reader (Varioskan™, ThermoFisher) at 450 nm. As shown, the antibody MES-1 consisting of SEQ ID NOs: 1 and 2 [Ab-3 (lane 3)] was not bound by CA125 while the other four anti-mesothelin antibodies tested were all bound by CA125. Values were determined from the average of triplicate wells. Statistical analysis was done using student's T-test. FIG. 1B. […] Both Ab-3 and Ab-4 uptake were measured in replica in black 96-well microplates over the course of 24 hours measuring intracellular fluorescence on a Varioskan™ plate reader. […]
In general terms: An ELISA detects its analyte on a solid surface through an enzyme-linked reagent.

For the next assay, the target named is T2, human serum albumin (human, UniProt P02768 25-609).
T2 construct: Negative control, coated at 1 ug/mL; also called HSA
The assay can be described thus: ELISA, plate coated with 1 µg/mL HSA, probed with antibody. The protocol:
Antibodies were tested for uptake by incubating each with the human ovarian cancer cell line OVCAR3 that express mesothelin and membrane bound CA125. The parental line was used to generate an isogenic CA125 knockdown line via shRNA (referred to as OVCAR3-KO). Both Ab-3 and Ab-4 uptake were measured in replica in black 96-well microplates over the course of 24 hours measuring intracellular fluorescence on a Varioskan™ plate reader. […] Statistical analysis was done using a two-sided student's T-test.
Several studies have reported that antibodies that are bound by CA125 are negatively affected in eliciting humoral mediated immune killing as well as ADC-mediated killing of target cells (Kline J B, et. al. OncoTarget 8:52045-52060, 2017; Kline J B, et al. Eur J Immunol 48:1872-1882, 2018; Kline J B, et al. J Clin Oncol 5:15, 2018; Nicolaides N C, et al. Cancer Biol Ther 13:1-22, 2018; Nicolaides et. al. USPTO application 1698444). In an attempt to identify anti-mesothelin antibodies that naturally are not bound by CA125, we obtained a number of anti-mesothelin antibodies from academic and commercial sources (National Cancer Institute, Creative Biolabs, Novus, etc.) and tested them for CA125 binding. […] Recombinant mesothelin was used as a positive control and human serum albumin (HSA) was used as negative control. […]

B1: MES-1 antibody (antibody, human IgG1, kappa, V domains shown)
VH: EVQLVESGGGLVQPGGSLRLSCAASGFDLGFYFYACWVRQAPGKGLEWVSCIYTAGSGSTYYASWAKGRFTISRDNSKNTLYLQMNSLRAEDTAVYYCARSTANTRSTYYLNLWGQGTLVTVSS
VL: DIQMTQSPSSLSASVGDRVTITCQASQRISSYLSWYQQKPGKVPKLLIYGASTLASGVPSRFSGSGSGTDFTLTISSLQPEDVATYYCQSYAYFDSNNWHAFGGGTKVEIKR
notes: For the uptake assay the antibody carried the pHrodo dye; also called meso-Ab3; Ab-3
Consider B1, for which the binding result (in assay [1]; with human serum albumin) was “no binding (tested: 2.5 µg/mL)” throughout.
